# Earlier results as cited in PMC8249329.
# Target: ACE2 (Homo sapiens) (UniProt Q9BYF1)
# Sequence (Q9BYF1 18-740): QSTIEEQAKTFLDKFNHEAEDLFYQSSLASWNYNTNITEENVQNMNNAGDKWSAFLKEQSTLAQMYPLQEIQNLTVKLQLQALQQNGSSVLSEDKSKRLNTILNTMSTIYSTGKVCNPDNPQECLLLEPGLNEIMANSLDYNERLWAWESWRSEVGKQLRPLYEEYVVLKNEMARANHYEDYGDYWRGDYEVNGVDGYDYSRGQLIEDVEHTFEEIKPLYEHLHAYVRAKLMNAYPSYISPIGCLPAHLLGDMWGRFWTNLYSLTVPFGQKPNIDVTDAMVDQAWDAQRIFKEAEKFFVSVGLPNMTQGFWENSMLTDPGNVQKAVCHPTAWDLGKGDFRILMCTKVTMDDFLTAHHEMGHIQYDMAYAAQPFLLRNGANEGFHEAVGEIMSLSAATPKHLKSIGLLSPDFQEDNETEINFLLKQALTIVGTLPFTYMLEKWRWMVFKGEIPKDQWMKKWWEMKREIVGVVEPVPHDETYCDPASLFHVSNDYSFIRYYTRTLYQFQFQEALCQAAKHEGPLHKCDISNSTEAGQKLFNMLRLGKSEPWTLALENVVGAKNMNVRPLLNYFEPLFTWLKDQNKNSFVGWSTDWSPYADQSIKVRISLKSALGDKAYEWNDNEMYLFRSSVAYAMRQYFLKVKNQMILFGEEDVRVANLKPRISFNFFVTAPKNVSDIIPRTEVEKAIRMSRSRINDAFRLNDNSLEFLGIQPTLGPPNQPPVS
# Sequence of HCoV-NL63 spike RBD (Q6Q1S2 481-616): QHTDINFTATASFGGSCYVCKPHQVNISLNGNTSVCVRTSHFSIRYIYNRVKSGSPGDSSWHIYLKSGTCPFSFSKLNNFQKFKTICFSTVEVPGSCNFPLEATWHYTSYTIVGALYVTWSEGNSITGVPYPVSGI
substance,measurement,value
HCoV-NL63 spike RBD (from UniProt Q6Q1S2),Kd,35 nM
